Paper doi:10.1101/2025.04.16.649061

Legend:
Test in all cases: BLI
[1] = molecular target: Hopsarin D (Hoplocephalus stephensii)
M17 fXa variant (human) = molecular target: M17 fXa variant (human)
[2] = molecular target: fXa L1 loop-swap chimera (human)
[3] = molecular target: fXa L123 loop-swap chimera (human)
[4] = molecular target: fXa L123/EGF2 chimera (M45) (human | Hoplocephalus stephensii)
[5] = molecular target: fXa L2 loop-swap chimera (human)
[6] = molecular target: fXa L23 chimera with the full EGF2 domain swap (human | Hoplocephalus stephensii)
[7] = molecular target: fXa L23 loop-swap chimera (human)
[8] = molecular target: fXa L3 loop-swap chimera (human)
[9] = molecular target: fXa SP chimera (entire HopD SP domain swapped into human fXa) (human | Hoplocephalus stephensii)
[10] = molecular target: fXa variant M13 (7 EGF2 and 6 SP mutations) (human)
[11] = molecular target: fXa variant M7 (7 EGF2 mutations) (human)
[12] = molecular target: wild-type human factor Xa (human)

Substance “B-domainless human fV (from UniProt P12259 29-2224) (natural protein)” has a Kd [1] of 18 nM, a Kd (M17 fXa variant (human)) of 17 nM and a Kd [2] of 532 nM. It also gave a Kd [3] of 608 nM, a Kd [4] of 43 nM and a Kd [5] of 1130 nM. For the same substance, the Kd [6] was 369 nM, the Kd [7] was 1120 nM and the Kd [8] was 905 nM. The Kd [9] was 400 nM, the Kd [10] was 48 nM and the Kd [11] was 78 nM. The Kd [12] was 1380 nM.
